Results from paper PMC8906176.

Molecular target: C4-AM2 monobody
Assay: BLI

Row | Substance | Kd
1 | SARS-CoV-2 S protein receptor-binding domain, Beta variant (B.1.351) (from UniProt P0DTC2) (domain or fragment) | 6.3 nM
2 | SARS-CoV-2 S protein receptor-binding domain, Alpha variant (B.1.1.7) (from UniProt P0DTC2) (domain or fragment) | < 0.01 nM
